According to patent publication US20140056903A1 (Regeneron, published 2014):

T1: monkey GFRα3 expressed with a C-terminal myc-myc-hexahistidine tag (monkey (Mf), UniProt O60609 32-374 (human entry), limits assumed)
T1 construct: also called MfGFRα3-mmh; MfGFRα3-mmH
T1 chain: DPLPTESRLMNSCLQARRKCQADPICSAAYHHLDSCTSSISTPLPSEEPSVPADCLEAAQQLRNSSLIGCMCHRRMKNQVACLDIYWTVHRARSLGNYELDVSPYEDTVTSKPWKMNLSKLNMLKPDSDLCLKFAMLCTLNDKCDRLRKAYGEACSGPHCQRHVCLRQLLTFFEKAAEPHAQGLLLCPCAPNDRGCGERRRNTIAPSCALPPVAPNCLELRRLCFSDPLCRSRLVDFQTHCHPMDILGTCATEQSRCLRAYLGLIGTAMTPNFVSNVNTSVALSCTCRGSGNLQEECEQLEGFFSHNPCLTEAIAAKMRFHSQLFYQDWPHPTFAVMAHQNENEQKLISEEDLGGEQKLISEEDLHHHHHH


Tests used:
[1] = target: T2, human GFRα3 expressed with a C-terminal myc-myc-hexahistidine tag (human, UniProt O60609 32-374, biotinylated (sites not given) in ELISA format 2 and in the Octet cross-competition; not in SPR); experiment: SPR, Ab captured, 37C
T2 construct: also called hGFRα3-mmh; hGFRα3-mmH
Procedure: (§1) Antibodies were tested for binding to human GFRα3 expressed with either a C-terminal myc-myc-hexahistidine tag (hGFRα3-mmh; SEQ ID: 370, a C-terminal hFc tag (hGFRα3-hFc; SEQ ID:371), or a C-terminal mFc tag (hGFRα3-mFc; SEQ ID:372), as well as monkey GFRα3 expressed with a C-terminal myc-myc-hexahistidine tag (MfGFRα3-mmh; SEQ ID:373). Anti-GFRα3 antibodies were captured on either a goat anti-mouse IgG polyclonal antibody (GE Healthcare, #BR-1008-38) or a mouse anti-human IgG monoclonal antibody (GE Healthcare, #BR-1008-39) surface created through direct amine coupling to a Biacore CM5 sensor chip. Kinetic experiments were carried out using HBS-EP (10 mM HEPES, 150 mM NaCl, 3 mM EDTA, 0.05% Surfactant P20, at pH 7.4) or PBS buffer containing 0.05% v/v surfactant P20 as both the running buffer and the sample buffer. Binding to human GFRα3-mmh or monkey GFRα3-mmh was evaluated by injecting several concentrations ranging from 200 to 7.4 nM (3-fold dilutions) across the captured antibody surface. Binding to human GFRα3-mFc or human GFRα3-hFc was evaluated by injecting several concentrations ranging from 100 to 3.7 nM (3-fold dilutions) across the captured antibody surface. Antibody-antigen association was monitored for up to 4 minutes, while dissociation in buffer was monitored for up to 20 minutes. Kinetic association (kₐ) and dissociation (kd) rate constants were determined by processing and fitting the data to a 1:1 binding model using Scrubber 2.0c curve fitting software. Binding dissociation equilibrium constants (KD) and dissociative half-lives (t_{1/2}) were calculated from the kinetic rate constants as: KD (M)=kd/kₐ and t_{1/2} (min)=[ln 2/(60*kd)].

[2] = target: T1, monkey GFRα3 expressed with a …; experiment: SPR, Ab captured, 37C
Procedure: as §1

Row | Binder | Kd [1] [nM] | koff [1] [s⁻¹] | kon [1] [M⁻¹ s⁻¹] | t1/2 [1] [min] | Kd [2] [nM] | koff [2] [s⁻¹] | kon [2] [M⁻¹ s⁻¹] | t1/2 [2] [min]
1 | H4H2341S (antibody, human IgG4, V domains shown, human IgG4 Fc (H4H)) VH: EVQLVESGAEVKKSGSSVKVSCKASGGTFSRYAISWVRQAPGQGLEWMGGIIPLFGTLNYAQKFQGRVTLTTDESTSTAYMELSSLRSEDTAVYYCAVFYYGSGSYRNWFDPWGQGTLVTVSS VL: not shown | 2.98 | 0.000737 | 248000 | 16 | 3.53 | 0.000508 | 144000 | 23
2 | H4H2344S (antibody, human IgG4, V domains shown, human IgG4 Fc (H4H)) VH: EVQLVESGGGVVQPGRSLRLSCAASGFSFSDYVMHWVRQAPGKGLEWVASIWFDGSNEFYADSVKGRFTISRDNSKNTLFLQMNSLRAEDTAVYYCAKKGVLVATSAFDIWGQGTMVTVSS VL: DIQMTQSPSSLSASVGDRVTITCRASQSINNYLNWYHQKPGKAPKLLIYAASSLQSGVPSRFSGSGSGTDYTLTISSLQPEDFGNYYCQQSYRTSMYTFGQGTKVEIK | 2.58 | 0.000724 | 280000 | 16 | 3.57 | 0.000575 | 161000 | 20
3 | H4H2354S (antibody, human IgG4, V domains shown, human IgG4 Fc (H4H); also called H4H2354S-1) VH: QVQLVESGGGVVQPGRSLRLSCAASGFSFSDYVMHWVRQAPGKGLEWVASIWFDGSNEFYADSVKGRFTISRDNSKNTLFLQMNSLRAEDTAVYYCAKKGVLVATSAFDIWGQGTMVTVSS VL: DIQLTQSPSSLSASVGDRVTITCRASQSINNYLNWYHQKPGKAPKLLIYAASSLQSGVPSRFSGSGSGTDYTLTISSLQPEDFGNYYCQQSYRTSMYTFGQGTKVEIK | 2.31 | 0.000649 | 281000 | 18 | 2.78 | 0.000435 | 157000 | 27
4 | H4H2346S (antibody, human IgG4, V domains shown, human IgG4 Fc (H4H)) VH: QVQLVESGGGVVQPGRSLRLSCAASGFSFSDYVMHWVRQAPGKGLEWVASIWFDGSNEFYADSVKGRFTISRDNSKNTLFLQMNSLRAEDTAVYYCAKKGVLVATSAFDIWGQGTMVTVSS VL: EIVMTQSPSSLSASVGDRVTITCRASQSINNYLNWYHQKPGKAPKLLIYAASSLQSGVPSRFSGSGSGTDYTLTISSLQPEDFGNYYCQQSYRTSMYTFGQGTKVEIK | 1.41 | 0.000589 | 419000 | 20 | 3.34 | 0.000511 | 153000 | 23

Binders with a lower Kd [1], results first:

Row | Kd [1] [nM] | koff [1] [s⁻¹] | kon [1] [M⁻¹ s⁻¹] | t1/2 [1] [min] | Kd [2] [nM] | koff [2] [s⁻¹] | kon [2] [M⁻¹ s⁻¹] | t1/2 [2] [min] | Binder
5 | 0.809 | 0.000273 | 338000 | 42 | 5.14 | 0.000861 | 168000 | 13 | H4H2364S (antibody, human IgG4, V domains shown, human IgG4 Fc (H4H)) VH: EVQLVESGGGLEQPGGSLRLSCAASGFTFSSYVMSWVRQVPGKGLEWVSVISGSGGSTYYADSVKGRFTISRDNSKNTLYLQMNSLRAEDTAVYYCAKPSSYSSSNFHYGMDVWGQGTTVTVSS VL: DIQMTQSPYSVSASVGDRVTITCRASQGISSWLAWYQQKPGRAPKLLIYAASSLQSGVPSRFSGSGSGTDFTLTISSLQPEDFATYYCQKTNSFPFTFGPGTKVEIK
6 | 0.313 | 0.000244 | 781000 | 47 | 0.358 | 0.000158 | 441000 | 73 | H4H2293P (antibody, human IgG4, V domains shown, human IgG4 Fc (H4H)) VH: QVQLVESGGGVVQPGRSLRLSCAASGFSFSDYVMHWVRQAPGKGLEWVASIWFDGSNELYADSVKGRFTISRDNSKNTLFLQMNSLRAEDTAVYYCAKKGVLVATSAFHIWGQGTMVTVSS VL: AIQMTQSPSSLSASVGDRVTITCRASQNINNYLNWYHQKPGKAPNLLIYAASSLQSGVPSRFSGSGSGTDYTLTISSLQPEDFGNYYCQQSYSTSMYTFGQGTKLEIK
